Source: ChEMBL document CHEMBL1143427, “Interactions of ceftobiprole with beta-lactamases from molecular classes A to D” (Antimicrob Agents Chemother, 2007)

Tests used:
Details in all cases: Enterobacter cloacae
[1] = substrate: CC1(C)S[C@@H]2[C@H](NC(=O)Cc3ccccc3)C(=O)N2[C@H]1C(=O)O
Description: (§1) Ratio of Kcat to Km of Enterobacter cloacae 4080 AmpC (P99) assessed as drug hydrolysis by spectrophotometry

[2] = substrate: CO/N=C(\C(=O)N[C@@H]1C(=O)N2C(C(=O)[O-])=C(C[N+]3(C)CCCC3)CS[C@H]12)c1csc(N)n1
Description: as §1

[3] = substrate: CC1(C)S[C@@H]2[C@H](NC(=O)Cc3ccccc3)C(=O)N2[C@H]1C(=O)O; remark: listed apart in the source
Description: (§2) Activity of Enterobacter cloacae 4080 AmpC (P99) assessed as drug hydrolysis by spectrophotometry

[4] = substrate: Nc1nc(/C(=N/O)C(=O)N[C@@H]2C(=O)N3C(C(=O)O)=C(/C=C4\CCN([C@@H]5CCNC5)C4=O)CS[C@H]23)ns1
Description: as §2

[5] = substrate: CO/N=C(\C(=O)N[C@@H]1C(=O)N2C(C(=O)[O-])=C(C[N+]3(C)CCCC3)CS[C@H]12)c1csc(N)n1; remark: listed apart in the source
Description: as §2

[6] = substrate: CC(C)(O/N=C(\C(=O)N[C@@H]1C(=O)N2C(C(=O)[O-])=C(C[n+]3ccccc3)CS[C@H]12)c1csc(N)n1)C(=O)O
Description: as §2

[7] = substrate: O=C(Cc1cccs1)N[C@@H]1C(=O)N2C(C(=O)[O-])=C(C[n+]3ccccc3)CS[C@H]12
Description: as §2

B1: Beta-lactamase (Enterobacter cloacae), P05364 (protein)
chain: MMRKSLCCALLLGISCSALATPVSEKQLAEVVANTITPLMKAQSVPGMAVAVIYQGKPHYYTFGKADIAANKPVTPQTLFELGSISKTFTGVLGGDAIARGEISLDDAVTRYWPQLTGKQWQGIRMLDLATYTAGGLPLQVPDEVTDNASLLRFYQNWQPQWKPGTTRLYANASIGLFGALAVKPSGMPYEQAMTTRVLKPLKLDHTWINVPKAEEAHYAWGYRDGKAVRVSPGMLDAQAYGVKTNVQDMANWVMANMAPENVADASLKQGIALAQSRYWRIGSMYQGLGWEMLNWPVEANTVVEGSDSKVALAPLPVAEVNPPAPPVKASWVHKTGSTGGFGSYVAFIPEKQIGIVMLANTSYPNPARVEAAYHILEALQ
With B1 the kcat/Km [1] was 6.8e+06 M⁻¹ s⁻¹, the kcat/Km [2] was 4000 M⁻¹ s⁻¹ and the Km [3] was 4.7 µM. The kcat [3] was 32 s⁻¹, the Km [4] was 9.4 µM and the kcat [4] was 0.21 s⁻¹. For the same protein, the Km [5] was 67 µM, the kcat [5] was 0.27 s⁻¹ and the Km [6] was 2.9 µM. It also gave a kcat [6] of 0.021 s⁻¹, a Km [7] of 330 µM and a kcat [7] of 2500 s⁻¹.
